Reference: patent US20190119357A1 (MODERNATX, published 2019)

molecular target: T1, MDM2 (UniProt Q00987 1-491, limits assumed); test: anti-V5 immunoprecipitation from transfected HCT116 cell lysates, blot probed with anti-MDM2
T1 construct: Endogenous MDM2 of HCT116 cells
T1 sequence (Q00987 whole entry): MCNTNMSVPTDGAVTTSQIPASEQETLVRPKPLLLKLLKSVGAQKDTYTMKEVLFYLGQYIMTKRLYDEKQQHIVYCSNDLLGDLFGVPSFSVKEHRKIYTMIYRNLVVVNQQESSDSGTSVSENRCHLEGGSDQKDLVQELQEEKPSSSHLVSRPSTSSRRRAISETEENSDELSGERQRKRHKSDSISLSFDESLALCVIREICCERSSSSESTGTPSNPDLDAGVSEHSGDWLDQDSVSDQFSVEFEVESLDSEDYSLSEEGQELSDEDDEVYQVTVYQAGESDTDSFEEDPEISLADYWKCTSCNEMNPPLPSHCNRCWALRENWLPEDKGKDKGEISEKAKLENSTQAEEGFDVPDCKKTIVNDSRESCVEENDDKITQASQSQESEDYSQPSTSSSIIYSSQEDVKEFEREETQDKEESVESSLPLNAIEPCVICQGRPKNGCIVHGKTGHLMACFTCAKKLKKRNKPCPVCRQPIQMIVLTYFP

Row | Binder | binding result
1 | SQT(MDM2)(L2).P3848.cV5 (designed binder, also called P3848 peptide in Loop 2 of SQT; SQT-MDM2 construct 5) MIPRGLSEAKPATPEIQEIVDKVKPQLEEKTNETYGKLEAVQYKTQVLASTNYYIKVRAGDNKYMHLKVFNGPLTFEHYWAQLTSPGQNADRVLTGYQVDKNKDDELTGFGKPIPNPLLGLDST | binds
2 | SQT(MDM2)(L2).P1E6W.cV5 (designed binder, also called P1E6W peptide in Loop 2 of SQT; SQT-MDM2 construct 6) MIPRGLSEAKPATPEIQEIVDKVKPQLEEKTNETYGKLEAVQYKTQVLASTNYYIKVRAGDNKYMHLKVFNGPETFEHWWAQLTSPGQNADRVLTGYQVDKNKDDELTGFGKPIPNPLLGLDST | binds
3 | SQT(MDM2)(nt).P7041.cV5 (designed binder, also called P7041 peptide in N-terminus of SQT; SQT-MDM2 construct 2) MIPRLTFEEYWAQLLSAAGLSEAKPATPEIQEIVDKVKPQLEEKTNETYGKLEAVQYKTQVLASTNYYIKVRAGDNKYMHLKVFNGPPGQNADRVLTGYQVDKNKDDELTGFGKPIPNPLLGLDST | binds

More lines, now with the values ahead:

Row | binding result | Binder
4 | binds | SQT(MDM2)(nt).P6W.cV5 (designed binder, also called P6W peptide in N-terminus of SQT; SQT-MDM2 construct 7) MIPRLTFEHWWAQLTSGLSEAKPATPEIQEIVDKVKPQLEEKTNETYGKLEAVQYKTQVLASTNYYIKVRAGDNKYMHLKVFNGPPGQNADRVLTGYQVDKNKDDELTGFGKPIPNPLLGLDST
5 | binds | SQT(MDM2)(nt).pMI.cV5 (designed binder, also called pMI peptide in N-terminus of SQT; SQT-MDM2 construct 4) MIPRTSFAEYWNLLSPGLSEAKPATPEIQEIVDKVKPQLEEKTNETYGKLEAVQYKTQVLASTNYYIKVRAGDNKYMHLKVFNGPPGQNADRVLTGYQVDKNKDDELTGFGKPIPNPLLGLDST
6 | binds | SQT(MDM2)(nt).pDIQ.cV5 (designed binder, also called pDIQ peptide in N-terminus of SQT; SQT-MDM2 construct 3) MIPRETFEHWWSQLLSGLSEAKPATPEIQEIVDKVKPQLEEKTNETYGKLEAVQYKTQVLASTNYYIKVRAGDNKYMHLKVFNGPPGQNADRVLTGYQVDKNKDDELTGFGKPIPNPLLGLDST
